This note sets out measurements from article PMC3334289 (Fems Microbiology Letters, 2012).

The data set concerns the molecule itself. Briefly: sedimentation of polymers.

B1: His6-tagged MreB (MreB-HIS) (natural protein, E. coli, UniProt P0A9X4 1-347, looked up)
chain: MLKKFRGMFSNDLSIDLGTANTLIYVKGQGIVLNEPSVVAIRQDRAGSPKSVAAVGHDAKQMLGRTPGNIAAIRPMKDGVIADFFVTEKMLQHFIKQVHSNSFMRPSPRVLVCVPVGATQVERRAIRESAQGAGAREVFLIEEPMAAAIGAGLPVSEATGSMVVDIGGGTTEVAVISLNGVVYSSSVRIGGDRFDEAIINYVRRNYGSLIGEATAERIKHEIGSAYPGDEVREIEVRGRNLAEGVPRGFTLNSNEILEALQEPLTGIVSAVMVALEQCPPELASDISERGMVLTGGGALLRNLDRLLMEETGIPVVVAEDPLTCVARGGGKALEMIDMHGGDLFSEE
Take B1: the binding result is on record as “binds”.
